From patent US20030091568A1, “Inhibitors for the formation of soluble human CD23” (priority 2000, published 2003)
Read-outs that look alike come from different tables or passages of the source. Values belong to the molecule of their own block, whether it stands above or below them.

Assays:
[1] = target: T1, human CD23b (full length cDNA, expressed on transfected COS or CHO cells) (human) (UniProt P06734); test: cell-based or functional assay
T1 sequence (looked up): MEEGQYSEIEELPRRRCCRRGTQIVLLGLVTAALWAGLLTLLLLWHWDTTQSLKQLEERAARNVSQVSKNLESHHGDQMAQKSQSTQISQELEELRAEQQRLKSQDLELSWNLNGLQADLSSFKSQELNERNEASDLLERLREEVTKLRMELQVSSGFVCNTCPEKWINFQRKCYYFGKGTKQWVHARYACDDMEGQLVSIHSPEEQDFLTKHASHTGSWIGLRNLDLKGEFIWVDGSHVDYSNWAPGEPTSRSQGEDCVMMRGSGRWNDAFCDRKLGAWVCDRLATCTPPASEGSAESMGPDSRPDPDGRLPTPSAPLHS

[2] = target: T2, ADAM9-Fc fusion protein (Mus musculus, UniProt Q61072); test: Cleavage of oxidized insulin B chain by soluble ADAM9-Fc (MALDI-TOF); assay type: biochemical; conditions: 2 mM inhibitor
T2 construct: the complete extracellular domain of ADAM9 (aa 1-698); made in house; host or cells: HEK293-EBNA1 cells (pCEP4), purified on Protein A Sepharose
T2 sequence (Q61072 206-698 limits assumed): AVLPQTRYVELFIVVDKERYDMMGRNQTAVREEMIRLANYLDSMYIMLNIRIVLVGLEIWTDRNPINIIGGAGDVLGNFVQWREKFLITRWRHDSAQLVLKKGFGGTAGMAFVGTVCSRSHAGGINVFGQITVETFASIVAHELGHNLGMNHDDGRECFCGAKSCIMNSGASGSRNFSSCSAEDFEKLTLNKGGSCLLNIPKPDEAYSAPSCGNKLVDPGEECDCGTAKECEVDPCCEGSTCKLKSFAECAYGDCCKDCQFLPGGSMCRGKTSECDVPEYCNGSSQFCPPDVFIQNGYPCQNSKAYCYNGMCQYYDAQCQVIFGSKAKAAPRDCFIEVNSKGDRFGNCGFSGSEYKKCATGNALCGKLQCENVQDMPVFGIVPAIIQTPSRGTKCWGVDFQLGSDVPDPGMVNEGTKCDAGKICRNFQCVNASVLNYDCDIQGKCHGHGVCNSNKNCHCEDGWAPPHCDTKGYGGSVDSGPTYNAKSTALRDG
Description: The estimated cleavage sites (marked by an ↓), determined by mass spectrometry (MALDI-TOF), are indicated.

[3] = target: oxidized human insulin B chain (human); test: cell-based or functional assay
oxidized human insulin B chain (human), sequence (peptide, as listed by the source): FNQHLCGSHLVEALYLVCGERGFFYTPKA

[4] = target: T1, human CD23b (full length cDNA, expressed on transfected COS or CHO cells) (human); test: cell-based or functional assay; remark: listed apart in the source

decrease in surface fluorescence intensity of CD23 (FACS, cotransfected COS cells, 48 h) [1]: 35 to 40%
Molecule: ADAM9ACT (truncated cytoplasmic domain), transfected into COS cells (from UniProt Q61072 30-845) (enzyme)

inhibition of cleavage of the insulin B chain [2]: completely inhibited
Molecule: c1cnc2c(c1)ccc1cccnc12 [o-phenanthroline]

peptide cleavage (MALDI-TOF) (cleavage sites) [3]: 2
Molecule: soluble ADAM9-Fc fusion protein (ADAM9 aa 1-698 fused to human IgG1 Fc)

amount of s-CD23 in culture supernatant (ELISA), ADAM9 expression On against Off [4]: 2 to 3 times
decrease in surface bound CD23 (flow cytometry MFI, CHO clone 3, tetracycline removed) [4]: 40 to 50%
decrease in surface fluorescence intensity of CD23 (FACS, cotransfected COS cells, 48 h) [4]: 35 to 40%
B1: ADAM9 (full length cDNA, transfected into COS-7 or CHO AA8 cells) (enzyme, murine, UniProt Q61072 30-845, looked up)
chain: GRPDLEQTVHLSSYEIITPWRLTRERREALGPSSQQISYVIQAQGKQHIIHLERNTDLLPNDFVVYTYDKEGSLLSDHPNVQSHCHYRGYVEGVQNSAVAVSACFGLRGLLHLENASFGIEPLHNSSHFEHIFYPMDGIHQEPLRCGVSNRDTEKEGTQGDEEEHPSVTQLLRRRRAVLPQTRYVELFIVVDKERYDMMGRNQTAVREEMIRLANYLDSMYIMLNIRIVLVGLEIWTDRNPINIIGGAGDVLGNFVQWREKFLITRWRHDSAQLVLKKGFGGTAGMAFVGTVCSRSHAGGINVFGQITVETFASIVAHELGHNLGMNHDDGRECFCGAKSCIMNSGASGSRNFSSCSAEDFEKLTLNKGGSCLLNIPKPDEAYSAPSCGNKLVDPGEECDCGTAKECEVDPCCEGSTCKLKSFAECAYGDCCKDCQFLPGGSMCRGKTSECDVPEYCNGSSQFCPPDVFIQNGYPCQNSKAYCYNGMCQYYDAQCQVIFGSKAKAAPRDCFIEVNSKGDRFGNCGFSGSEYKKCATGNALCGKLQCENVQDMPVFGIVPAIIQTPSRGTKCWGVDFQLGSDVPDPGMVNEGTKCDAGKICRNFQCVNASVLNYDCDIQGKCHGHGVCNSNKNCHCEDGWAPPHCDTKGYGGSVDSGPTYNAKSTALRDGLLVFFFLIVPLVAAAIFLFIKRDELRKTFRKKRSQMSDGRNQANVSRQPGDPSISRPPGGPNVSRPPGGPGVSRPPGGPGVSRPPGGPGVSRPPPGHGNRFPVPTYAAKQPAQFPSRPPPPQPKISSQGNLIPARPAPAPPLYSSLT
